Legend:
Conditions in all cases: both partners purified
[1] = molecular target: T1, S52P transthyretin (S52P TTR), full-length protomer (residues 1–127) (UniProt P02766 21-147, S52P); assay: native MS; TTR (S52P with or without limited trypsin proteolysis; wild type) in 200 mM ammonium acetate pH 7.4, nano-electrospray; 13+ charge state of the tetramer selected, acceleration voltage ramped 20 to 70 V (collision-induced dissociation)
[2] = molecular target: T1, S52P transthyretin (S52P TTR), …; assay: native MS; equimolar 50 uM light wild-type and heavy S52P TTR in PBS 3 days at 4°C, then overnight with trypsin at 37°C; each tetramer species isolated and activated (tandem MS, Q-TOFII, 40 V)
[3] = molecular target: wild-type transthyretin (wild-type TTR) (UniProt P02766 21-147); assay: as above

binding result [1]	binding result [2]	binding result [3]	Binder
binds			CPLMVK (tryptic peptide seen as adduct on the S52P TTR tetramer; source: trypsin digestion of recombinant S52P TTR) [tryptic peptide CPLMVK]
	binds	binds	residue 49–127 fragment of S52P TTR (domain or fragment, In the hybrid tetramer experiment the fragment comes from the 13C,15N-labelled S52P TTR; source: limited trypsin proteolysis of recombinant S52P TTR (cleavage at Lys48)) not shown

— paper PMC4604687, “A novel mechano-enzymatic cleavage mechanism underlies transthyretin amyloidogenesis” (EMBO Molecular Medicine, 2015)
